This is an account of results in paper PMC5171582, “Translational regulation of APOBEC3G mRNA by Vif requires its 5′UTR and contributes to restoring HIV-1 infectivity” (Scientific Reports, 2016).

In the assay the target is T1, HA-tagged APOBEC3G (human, UniProt Q9HC16 1-384).
T1 construct: APOBEC3G (A3G), human cytidine deaminase, expressed from pA3G-HA; The plasmid pA3G-HA is not described in the Plasmids section; also called A3G-HA; A3G; source: HEK 293T, transfected (pA3G-HA), in lysate
The assay can be described thus: co-IP; HEK 293T cells co-transfected with pA3G-HA and wild-type or mutant Vif plasmids; lysed in RIPA 1X 24 h post-transfection; anti-HA antibody 2 h at 4 °C, protein A Dynabeads 1.5 h at 4 °C, 5 washes with cold RIPA; western blot with anti-Vif. Conditions: partners not purified.

T1 sequence (Q9HC16 whole entry): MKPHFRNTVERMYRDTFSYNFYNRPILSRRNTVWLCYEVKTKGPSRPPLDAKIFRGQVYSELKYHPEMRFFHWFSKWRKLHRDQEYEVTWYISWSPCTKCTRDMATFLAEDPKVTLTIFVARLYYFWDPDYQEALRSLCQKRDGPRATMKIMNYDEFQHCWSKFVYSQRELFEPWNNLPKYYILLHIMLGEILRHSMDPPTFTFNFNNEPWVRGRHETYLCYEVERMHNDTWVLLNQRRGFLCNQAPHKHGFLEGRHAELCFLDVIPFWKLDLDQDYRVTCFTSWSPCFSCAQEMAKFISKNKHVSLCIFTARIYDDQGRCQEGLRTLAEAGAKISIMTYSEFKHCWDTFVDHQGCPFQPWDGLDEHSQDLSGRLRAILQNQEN

B1: Vif H42/43N (natural protein)
chain: not shown
notes: Vif of HIV-1 NL4.3 (codon-optimized pcDNAhVif) with the mutations H42N and H43N; also called H42/H43-N; Vif mutant H42/43N; source: HEK 293T, transfected (pcDNAhVif mutant), in lysate
Take B1: the “fold decrease of binding against wild-type Vif” value is ~2 fold.
